Target: NFAT (in Hela cells) (human)
Test: cell-based or functional assay

NFAT-luciferase reporter activity in Hela cells: 80 % reduction
Substance: Flag tagged full length wild type human IRAK-1 (pFlag-IRAK-1)

Source: patent US20100189695A1, “IRAK-1 AS REGULATOR OF DISEASES AND DISORDERS” (priority 2008, published 2010)
